Laboratory results published in the supplement of paper PMC10126150.
± gives the standard deviation of the averaged measurements.

tested on: ATP; test: switch fluorescence ratio, 500 uM ATP over buffer (Cy3 cluster intensity, sum of 5 cycles each) (fold (ratio)); higher = stronger signal-on switching upon ATP binding; sequences stand for … in TCGTCGGCAGCGTCAGATGTGTATAAGAGACAGTTTTTTTTTTTTTTTTTTTTTTTTT…TC; details: aptamer strand: ATP DNA aptamer (quencher-CACCTGGGGGAGTATTGCGGAGGAAGG + anchor), 100 nM annealed; ATP concentration: 500 uM
Method in brief: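 Exposure to 500 uM ATP lasted 15 min at 22 °C before imaging, and a selection-buffer image was taken beforehand, for Cy3-labelled switching-strand clusters on a modified Illumina MiSeq flow-cell annealed to 100 nM quencher-labelled ATP aptamer. Five buffer/ATP cycles were run with NaOH stripping and re-annealing between them. The fluorescence ratio per cluster is summed target-cycle over summed buffer-cycle Cy3 intensity, averaged per switch-domain sequence. Clusters outside 100-1000 RFU were excluded.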

| Sequence | switch fluorescence ratio |
| --- | --- |
| TAGGGCGCCG | 1.0192 ± 0.00067 |
| TAGGGCTCAG | 0.9928 ± 0.0098 |
| TAGGGCTGGG | 0.972 ± 0.048 |
| TAGGGGAAGC | 0.989 ± 0.031 |
| TAGGGGAGAT | 1.027 ± 0.0098 |
| TAGGGGAGGG | 1.03 ± 0.041 |
| TAGGGGCACA | 1.01 ± 0.033 |
| TAGGGGGCTA | 0.995 ± 0.027 |
| TAGGGGGCTG | 1.01 ± 0.02 |
| TAGGGGGGAG | 0.981 ± 0.024 |
| TAGGGGGGGC | 0.978 ± 0.022 |
| TAGGGGGTAT | 1.02 ± 0.019 |
| TAGGGGTA | 1.01 ± 0.021 |
| TAGGGGTAGC | 0.985 ± 0.04 |
| TAGGGGTGAG | 1.04 ± 0.021 |
| TAGGGGTGGC | 0.956 ± 0.099 |
| TAGGGTCACG | 0.99721 ± 0.00082 |
| TAGGGTCTCA | 1 ± 0.031 |
| TAGGGTGGG | 1.024 ± 0.0028 |
| TAGGGTGTGT | 0.952 ± 0.016 |
| TAGGGTTCAA | 0.989 ± 0.02 |
| TAGGGTTGGC | 0.969 ± 0.013 |
| TAGGGTTGGT | 1.01 ± 0.046 |
| TAGGGTTTTG | 1.01 ± 0.042 |
| TAGGGTTTTT | 1.03 ± 0.038 |

| Sequence | switch fluorescence ratio |
| --- | --- |
| TAGGTAACCG | 0.943 ± 0.056 |
| TAGGTAGGAG | 1 ± 0.031 |
| TAGGTAGTGG | 1.01 ± 0.027 |
| TAGGTATATT | 0.97 ± 0.019 |
| TAGGTCATAT | 1 ± 0.022 |
| TAGGTCATGG | 0.985 ± 0.011 |
| TAGGTCCCTG | 0.99 ± 0.042 |
| TAGGTCCTGG | 0.9888 ± 0.0074 |
| TAGGTCTTAA | 0.995 ± 0.013 |
| TAGGTGAAAC | 0.988 ± 0.016 |
| TAGGTGCCTT | 1.006 ± 0.0053 |
| TAGGTGGGAT | 1.05 ± 0.038 |
| TAGGTTAACT | 0.956 ± 0.024 |
| TAGGTTACGG | 0.984 ± 0.024 |
| TAGGTTAGTG | 0.951 ± 0.01 |
| TAGGTTCTTT | 0.995 ± 0.022 |
| TAGGTTGTAT | 0.978 ± 0.018 |
| TAGGTTTAAA | 0.991 ± 0.039 |
| TAGGTTTCTT | 1.01 ± 0.031 |
| TAGGTTTGGG | 0.962 ± 0.025 |
| TAGTAAGGGA | 1 ± 0.031 |
| TAGTAAGGGC | 1.02 ± 0.033 |
| TAGTAATCGA | 1.02 ± 0.018 |
| TAGTACTGCT | 1.02 ± 0.015 |
| TAGTAGAGCT | 1.009 ± 0.002 |

| Sequence | switch fluorescence ratio |
| --- | --- |
| TAGTAGGAGT | 1.02 ± 0.035 |
| TAGTAGGCCA | 1.01 ± 0.055 |
| TAGTAGGGTG | 1.03 ± 0.036 |
| TAGTATGGGT | 0.9692 ± 0.0077 |
| TAGTATGTGG | 0.9612 ± 0.0025 |
| TAGTATTACC | 0.9943 ± 0.0081 |
| TAGTCAGCC | 1.01 ± 0.029 |
| TAGTCAGGGG | 0.9852 ± 0.0041 |
| TAGTCATATC | 1.01 ± 0.032 |
| TAGTCATTAA | 1.002 ± 0.0028 |
| TAGTCGAGAC | 1.01 ± 0.018 |
| TAGTCGTTAG | 1 ± 0.037 |
| TAGTCTACGA | 1.03 ± 0.026 |
| TAGTCTATCG | 0.969 ± 0.025 |
| TAGTGAAAGA | 0.9855 ± 0.0031 |
| TAGTGCAATA | 1.6994 ± 0.00043 |
| TAGTGCGCGC | 1.03 ± 0.025 |
| TAGTGCTGCA | 0.9692 ± 0.0012 |
| TAGTGGACTC | 1.02 ± 0.034 |
| TAGTGGAGTG | 1 ± 0.011 |
| TAGTGGCCTG | 0.955 ± 0.023 |
| TAGTGGGCTG | 0.972 ± 0.025 |
| TAGTGGGGTG | 0.969 ± 0.01 |
| TAGTGGGTGG | 0.989 ± 0.01 |
| TAGTGGTGGA | 0.9979 ± 0.009 |

| Sequence | switch fluorescence ratio |
| --- | --- |
| TAGTGGTTT | 0.986 ± 0.024 |
| TAGTTACACG | 1.01 ± 0.025 |
| TAGTTATCGT | 1.01 ± 0.027 |
| TAGTTATGAA | 1.01 ± 0.016 |
| TAGTTATTA | 0.989 ± 0.026 |
| TAGTTCTCTT | 0.989 ± 0.026 |
| TAGTTGAGTG | 0.987 ± 0.037 |
| TAGTTGGTTT | 0.999 ± 0.037 |
| TAGTTTGAAT | 1.01 ± 0.024 |
| TAGTTTTACC | 1 ± 0.013 |
| TAGTTTTCAT | 1.021 ± 0.01 |
| TAGTTTTCGC | 1 ± 0.031 |
| TAGTTTTTCG | 1 ± 0.025 |
| TATAAAAAAT | 1 ± 0.028 |
| TATAAAAATC | 1.07 ± 0.084 |
| TATAAATAGT | 0.96 ± 0.046 |
| TATAACGGTT | 1.034 ± 0.0074 |
| TATAACTCAT | 1.02 ± 0.029 |
| TATAAGGGCG | 0.976 ± 0.058 |
| TATAAGGGGT | 0.9862 ± 0.0083 |
| TATAAGTAGG | 0.968 ± 0.028 |
| TATAAGTGAT | 1.17 ± 0.26 |
| TATAATAGTA | 1.0013 ± 0.001 |
| TATAATATAT | 1 ± 0.029 |
| TATAATCCTG | 0.992 ± 0.035 |
